{
  "source": "patent US12498364B2",
  "about": "“Use of soluble urokinase plasminogen activator receptor levels to indicate prevention of cardiovascular disease with a statin” (The Regents of the University of Michigan, priority 2019, dated 2025)",
  "origin": "cited, not measured here",
  "key": {"interleukin 1β": {"target": "T1, interleukin 1β (Homo sapiens, UniProt P01584)", "T1 construct": "host or cells: patients (in vivo, endogenous cytokine)", "settings": "patients with heart disease and hs-CRP>2.0 mg/L; cited from earlier work"}, "[1]": {"settings": "cited from earlier work"}},
  "note": "“Also recorded” adds a separate entry of the source.",
  "data": [
    {"compound": "canakinumab", "values": [
      {"measurement": "hs-CRP compared to placebo", "setting": "interleukin 1β", "value": "reduction in hs-CRP"},
      {"measurement": "rate of cardiovascular events compared to placebo", "setting": "interleukin 1β", "value": "lower rate of cardiovascular events; also recorded: reduced risk of adverse cardiovascular events"}
    ]},
    {"compound": "CC(=O)S[C@@H]1CC2=CC(=O)CC[C@]2(C)[C@H]2CC[C@@]3(C)[C@@H](CC[C@@]34CCC(=O)O4)[C@H]12", "note": "[spironolactone]", "values": [
      {"measurement": "incidence of the primary outcome", "setting": "[1]; overall study, HFpEF", "value": "did not decrease the incidence of the primary outcome"},
      {"measurement": "incidence of cardiovascular events compared to placebo", "setting": "[1]; post-hoc, North American patients", "value": "lower incidence of cardiovascular events"}
    ]}
  ]
}
